The results in this text go back to patent US20050100554A1 (published 2005).

B1: Human papillomavirus 16 L2 (other)
chain: MRHKRSAKRTKRASATQLYKTCKQAGTCPPDIIPKVEGKTIAVQILQYGSMGVFFGGLGIGTGSGTGGRTGYIPLGTRPPTATDTLAPVRPPLTVDPVGPSDPSIVSLVEETSFIDAGAPTSVPSIPPDVSGFSITTSTDTTPAILDINNTVTTVTTHNNPTFTDPSVLQPPTPAETGGHFTLSSSTISTHNYEEIPMDTFIVSTNPNTVTSSTPIPGSRPVARLGLYSRTTQQVKVVDPAFVTTPTKLITYDNPAYEGIDVDNTLYFSSNDNSINIAPDPDFLDIVALHRPALTSRRTGIRYSRIGNKQTLRTRSGKSIGAKVHYYYDLSTIDPAEEIELQTITPSTYTTTSHAASPTSINNGLYDIYADDFITDTSTTPVPSVPSTSLSGYIPANTTIPFGGAYNIPLVSGPDIPINITDQAPSLIPIVPGSPQYTIIADAGDFYLHPSYYMLRKRRKRLPYFFSDVSLAA
notes: also called HPV 16 L2; cbe_251737

One assay has as its target T1, gbh_al121903 (human, UniProt Q9Y6D5 1145-1785).
T1 construct: also called cbe_3473488
T1 sequence: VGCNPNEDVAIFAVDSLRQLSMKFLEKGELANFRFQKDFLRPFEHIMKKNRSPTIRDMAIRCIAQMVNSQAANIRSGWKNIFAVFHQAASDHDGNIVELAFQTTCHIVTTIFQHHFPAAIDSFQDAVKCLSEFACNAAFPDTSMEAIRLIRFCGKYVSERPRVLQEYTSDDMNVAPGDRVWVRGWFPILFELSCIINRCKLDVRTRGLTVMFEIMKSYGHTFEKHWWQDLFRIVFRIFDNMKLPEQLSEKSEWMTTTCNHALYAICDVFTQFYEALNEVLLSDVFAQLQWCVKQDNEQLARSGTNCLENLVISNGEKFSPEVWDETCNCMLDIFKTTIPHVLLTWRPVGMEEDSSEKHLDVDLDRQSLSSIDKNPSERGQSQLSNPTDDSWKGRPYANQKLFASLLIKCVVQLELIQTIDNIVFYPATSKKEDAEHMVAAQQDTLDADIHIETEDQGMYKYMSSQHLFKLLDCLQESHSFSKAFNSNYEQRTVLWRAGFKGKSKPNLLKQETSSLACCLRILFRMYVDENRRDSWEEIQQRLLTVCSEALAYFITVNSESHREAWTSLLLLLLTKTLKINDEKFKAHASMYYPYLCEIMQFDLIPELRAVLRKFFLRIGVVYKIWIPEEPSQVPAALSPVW
Nature of the assay: Y2H; INT ID 185.

A further assay deals with T2, KIAA1389 protein (human, UniProt Q9P2F8 219-1722).
T2 construct: also called cbe_3663966
The assay can be described thus: Y2H; INT ID 187.

Assay [1] concerns the target T3, signal-induced proliferation-associated 1 like 1 (human, UniProt O43166 1-1804).
T3 construct: also called KIAA0440; cbe_3056756
The assay can be described thus: Y2H; INT ID 184.

Assay [2] deals with T4, Human papillomavirus 16 L1 (Human papillomavirus 16, UniProt P03101 1-505).
T4 construct: also called HPV 16 L1; cbe_251784
T4 sequence: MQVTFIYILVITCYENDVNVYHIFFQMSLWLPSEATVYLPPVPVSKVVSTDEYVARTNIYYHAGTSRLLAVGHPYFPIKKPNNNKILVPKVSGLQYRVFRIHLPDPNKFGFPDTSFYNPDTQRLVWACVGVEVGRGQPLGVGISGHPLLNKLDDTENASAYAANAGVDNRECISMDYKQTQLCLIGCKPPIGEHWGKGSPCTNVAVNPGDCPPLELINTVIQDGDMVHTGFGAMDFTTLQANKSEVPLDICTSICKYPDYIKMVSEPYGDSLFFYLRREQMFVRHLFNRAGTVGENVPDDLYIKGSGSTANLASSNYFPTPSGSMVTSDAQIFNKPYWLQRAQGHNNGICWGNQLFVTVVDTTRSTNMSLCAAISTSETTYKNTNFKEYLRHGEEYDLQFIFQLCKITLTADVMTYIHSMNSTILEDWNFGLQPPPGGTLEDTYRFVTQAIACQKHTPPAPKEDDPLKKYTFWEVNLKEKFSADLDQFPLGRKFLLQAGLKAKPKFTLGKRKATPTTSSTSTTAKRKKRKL
Nature of the assay: Y2H; INT ID 196.

The target in assay [3] is B1. Nature of the assay: Y2H; INT ID 188.
Assay [4] concerns the target T5, Human Papillomavirus 1a E2 (Human Papillomavirus 1a, UniProt P03118 1-401).
T5 construct: also called HPV 1a E2; cbe_251917
T5 sequence: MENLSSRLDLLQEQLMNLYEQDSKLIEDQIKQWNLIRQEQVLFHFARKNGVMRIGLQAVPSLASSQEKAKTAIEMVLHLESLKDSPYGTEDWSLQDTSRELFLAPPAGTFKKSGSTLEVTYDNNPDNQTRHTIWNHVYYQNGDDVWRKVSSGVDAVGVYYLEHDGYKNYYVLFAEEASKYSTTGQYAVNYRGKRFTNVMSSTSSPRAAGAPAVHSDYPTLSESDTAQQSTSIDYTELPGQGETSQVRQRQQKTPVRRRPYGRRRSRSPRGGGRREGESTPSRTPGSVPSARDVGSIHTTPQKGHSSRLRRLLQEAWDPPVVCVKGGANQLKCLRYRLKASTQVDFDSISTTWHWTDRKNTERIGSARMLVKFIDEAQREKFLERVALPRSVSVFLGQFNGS
Nature of the assay: Y2H; INT ID 415.

For assay [5], the target named is B1. The assay can be described thus: Y2H; INT ID 191.
Assay [6] deals with T5, Human Papillomavirus 1a E2. Nature of the assay: Y2H; INT ID 383.
Assay [7] addresses T5, Human Papillomavirus 1a E2. The assay can be described thus: Y2H; INT ID 410.
The target of assay [8] is T4, Human papillomavirus 16 L1. Nature of the assay: Y2H; INT ID 197.
In assay [9] the target is B1. The assay can be described thus: Y2H; INT ID 189.

T2 sequence (Q9P2F8 other isoform, or with tags, fused parts or gaps limits assumed): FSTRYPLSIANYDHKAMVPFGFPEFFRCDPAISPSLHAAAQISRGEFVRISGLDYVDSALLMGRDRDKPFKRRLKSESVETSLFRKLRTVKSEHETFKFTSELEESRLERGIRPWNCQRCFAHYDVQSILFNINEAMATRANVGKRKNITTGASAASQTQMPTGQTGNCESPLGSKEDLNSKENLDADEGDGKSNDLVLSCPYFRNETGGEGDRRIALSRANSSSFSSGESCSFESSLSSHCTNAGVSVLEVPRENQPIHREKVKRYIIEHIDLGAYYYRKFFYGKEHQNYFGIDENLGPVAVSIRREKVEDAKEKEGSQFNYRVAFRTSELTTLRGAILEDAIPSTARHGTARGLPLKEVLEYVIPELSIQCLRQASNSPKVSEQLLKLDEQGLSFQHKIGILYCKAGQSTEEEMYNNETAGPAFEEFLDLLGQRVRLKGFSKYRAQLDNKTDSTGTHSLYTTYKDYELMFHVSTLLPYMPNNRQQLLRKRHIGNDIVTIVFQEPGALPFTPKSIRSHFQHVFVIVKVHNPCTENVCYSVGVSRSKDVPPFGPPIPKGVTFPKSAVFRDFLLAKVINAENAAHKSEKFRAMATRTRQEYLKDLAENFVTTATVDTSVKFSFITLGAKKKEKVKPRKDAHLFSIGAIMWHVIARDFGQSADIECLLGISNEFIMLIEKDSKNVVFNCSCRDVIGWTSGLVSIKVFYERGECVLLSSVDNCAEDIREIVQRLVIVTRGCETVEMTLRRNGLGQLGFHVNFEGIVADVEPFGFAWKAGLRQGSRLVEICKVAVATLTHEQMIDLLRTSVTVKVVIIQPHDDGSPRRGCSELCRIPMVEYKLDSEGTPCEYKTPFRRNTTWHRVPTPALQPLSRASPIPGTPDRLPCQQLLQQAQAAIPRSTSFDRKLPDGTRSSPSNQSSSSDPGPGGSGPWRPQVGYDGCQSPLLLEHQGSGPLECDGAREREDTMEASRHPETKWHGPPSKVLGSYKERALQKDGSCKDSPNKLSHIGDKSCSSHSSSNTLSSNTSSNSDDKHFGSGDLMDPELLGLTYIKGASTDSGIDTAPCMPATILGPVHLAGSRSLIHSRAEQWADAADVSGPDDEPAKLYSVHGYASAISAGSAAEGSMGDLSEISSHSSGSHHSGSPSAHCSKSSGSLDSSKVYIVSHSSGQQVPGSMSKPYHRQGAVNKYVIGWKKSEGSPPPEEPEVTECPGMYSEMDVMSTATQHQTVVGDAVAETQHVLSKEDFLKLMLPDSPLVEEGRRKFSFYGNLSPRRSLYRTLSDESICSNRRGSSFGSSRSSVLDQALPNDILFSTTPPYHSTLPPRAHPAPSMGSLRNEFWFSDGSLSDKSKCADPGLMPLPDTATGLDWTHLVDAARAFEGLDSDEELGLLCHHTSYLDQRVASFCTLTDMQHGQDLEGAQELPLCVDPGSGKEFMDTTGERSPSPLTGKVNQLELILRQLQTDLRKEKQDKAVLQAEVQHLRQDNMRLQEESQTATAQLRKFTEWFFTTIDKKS
T3 sequence (O43166 whole entry): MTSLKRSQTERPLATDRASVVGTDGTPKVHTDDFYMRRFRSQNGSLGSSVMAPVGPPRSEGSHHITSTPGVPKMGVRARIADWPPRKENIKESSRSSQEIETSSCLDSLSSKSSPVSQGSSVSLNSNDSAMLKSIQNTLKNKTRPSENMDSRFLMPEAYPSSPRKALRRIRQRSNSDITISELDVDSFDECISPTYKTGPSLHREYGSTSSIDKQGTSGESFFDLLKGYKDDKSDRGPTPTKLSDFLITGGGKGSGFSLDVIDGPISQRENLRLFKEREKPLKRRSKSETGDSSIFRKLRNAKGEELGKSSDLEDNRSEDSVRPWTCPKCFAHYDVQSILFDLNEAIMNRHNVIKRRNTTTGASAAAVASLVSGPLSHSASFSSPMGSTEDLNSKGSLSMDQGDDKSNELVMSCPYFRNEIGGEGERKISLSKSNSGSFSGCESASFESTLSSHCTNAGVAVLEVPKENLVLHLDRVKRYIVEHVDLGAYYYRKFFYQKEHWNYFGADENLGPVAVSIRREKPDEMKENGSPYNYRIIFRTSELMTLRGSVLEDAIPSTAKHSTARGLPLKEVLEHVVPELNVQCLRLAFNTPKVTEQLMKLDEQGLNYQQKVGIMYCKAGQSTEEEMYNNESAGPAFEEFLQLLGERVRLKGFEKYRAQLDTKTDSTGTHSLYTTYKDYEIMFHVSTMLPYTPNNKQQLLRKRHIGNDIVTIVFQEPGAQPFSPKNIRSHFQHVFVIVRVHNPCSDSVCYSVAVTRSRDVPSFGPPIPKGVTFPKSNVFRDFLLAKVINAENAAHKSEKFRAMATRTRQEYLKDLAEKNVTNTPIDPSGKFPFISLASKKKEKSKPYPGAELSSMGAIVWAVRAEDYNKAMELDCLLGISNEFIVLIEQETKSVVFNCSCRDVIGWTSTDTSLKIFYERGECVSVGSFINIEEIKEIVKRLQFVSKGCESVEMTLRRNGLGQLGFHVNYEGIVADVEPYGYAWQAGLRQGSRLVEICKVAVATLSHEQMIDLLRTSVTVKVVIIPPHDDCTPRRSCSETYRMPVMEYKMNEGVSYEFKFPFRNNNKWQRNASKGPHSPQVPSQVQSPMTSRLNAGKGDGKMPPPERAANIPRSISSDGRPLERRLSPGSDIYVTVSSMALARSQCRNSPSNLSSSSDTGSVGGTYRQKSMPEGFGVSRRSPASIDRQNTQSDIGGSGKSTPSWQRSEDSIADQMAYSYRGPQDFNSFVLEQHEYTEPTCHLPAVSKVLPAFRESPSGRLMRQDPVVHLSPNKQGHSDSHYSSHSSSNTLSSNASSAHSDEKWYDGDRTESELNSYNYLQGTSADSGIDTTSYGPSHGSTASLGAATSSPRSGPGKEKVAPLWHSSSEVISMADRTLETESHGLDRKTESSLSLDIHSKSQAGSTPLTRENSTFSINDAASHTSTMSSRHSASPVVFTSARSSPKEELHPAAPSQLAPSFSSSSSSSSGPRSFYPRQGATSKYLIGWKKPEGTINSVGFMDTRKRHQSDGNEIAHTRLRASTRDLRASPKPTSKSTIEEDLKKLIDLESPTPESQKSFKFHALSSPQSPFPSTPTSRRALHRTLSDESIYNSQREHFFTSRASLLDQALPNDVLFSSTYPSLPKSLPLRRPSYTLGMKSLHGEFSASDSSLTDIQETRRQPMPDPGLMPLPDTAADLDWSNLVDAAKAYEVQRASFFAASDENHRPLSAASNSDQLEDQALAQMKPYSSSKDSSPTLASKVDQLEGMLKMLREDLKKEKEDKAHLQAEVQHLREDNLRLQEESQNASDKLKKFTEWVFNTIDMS

Consider B1, for which the binding result (with gbh_al121903; with KIAA1389 protein; in [1]) was “binds” each time.

B2: HCDI protein (other)
chain: MGWRRKRVPQRGRKAPPPQLHGNINNLYFPIRWRDRLHWDSPNPAAECQRHEVTLVSRKPGPGRITWDELAASGLPSCDAAVNLAGENILNPLRRWNETFQKEVLGSRLETTQLLAKAITKAPQPPKAWVLVTGVAYYQPSLTAEYDEDSPGGDFDFFSNLVTKWEAAARLPGDSTRQVVVRSGVVLGRGGGAMGHMLLPFRLGLGGPIGSGHQFFPWIHIGDLAGILTHALEANHVHGVLNGVAPSSATNAEFAQTLGAALGRRAFIPLPSAVVQAVFGRQRAIMLLEGQKVIPQRTLATGYQYSFPELGAALKEIVA
notes: also called cbe_1505425
B2: the binding result in assay [2] is on record as “binds”.

B3: chemokine-like factor 1 (other)
chain: MDNVQPKIKHRPFCFSVKGHVKMLRLALTVTSMTFFIIAQAPEPYIVITGFEVTVILFFILLYVLRLDRLMKWLFWPLLDIINSLVTTVFMLIVSVLALIPETTTLTVGGGVFALVTAVCCLADGALIYRKLLFNPSGPYQKKPVHEKKEVL
notes: also called HSPC224; CKLF1
B3: the binding result in [3] is “binds”.

B4: hypothetical protein MGC3222 (other)
chain: VVSPDSIHSVAPENEGRLVHIIGALRTSKLLSDPNYGVHLPAVKLRRHVEMYQWVETEESREYTEDGQVKKETRYSYNTEWRSEIINSKNFDREIGHNNPSAMAVESFTATAPFVQIGRFFLSSGLIDKVDNFKSLSLSKLEDPHVDIIRRGDFFYHSENPKYPEVGDLRVSFSYAGLSGDDPDLGPAHVVTVIARQRGDQLVPFSTKSGDTLLLLHHGDFSAEVSAVPYSYGGGTSMSFLPSSGYLIRSHYQGS
notes: also called cbe_3583511
Turning to B4, the binding result in [4] is “binds”.

B5: KIAA0276 (other)
chain: MHSDAAAVNFQLNSHLSTLANIHKIYHTLNKLNLTEDIGQDDHQTGSLRSCSSSDCFNKVMPPRKKRRPASGDDLSAKKSRHDSMYRKYDSTRIKTEEEAFSSKRCLEWFYEYAGTDDVVGPEGMEKFCEDIGVEPENVVMLVLAWKLDAQNMGYFTLQEWLKGMTSLQCDTTEKLRNTLDYLRSFLNDSTNFKLIYRYAFDFAREKDQRSLDINTAKCMLGLLLGKIWPLFPVFHQFLEQSKYKVINKDQWCNVLEFSRTINLDLSNYDEDGAWPVLLDEFVEWYKDKQMS
notes: also called cbe_4270335
As for B5, the binding result in [5] is given as “binds”.

B6: low molecular mass ubiquinone-binding protein (9.5 kD) (other)
chain: MGREFGNLTRMRHVISYSLSPFEQRAYPHVFTKGIPNVLRRIRESFFRVVPQFVVFYLIYTWGTEEFERSKRRIQLPMKMTNEQRIRMTVPCL
notes: also called QP-C; cbe_1710
In the case of B6, the binding result in assay [6] is on record as “binds”.

B7: Prey2777 (other)
chain: MNPVPHWGEVFLLVGGEGEHLASQGTTPARDHRVGISPASQQAQPESWRRRQRDKGVDPEKAPSLTRQSQNPPSLTAPLGMPSACSCLPCGPAPEAAIILAGPPTALTVLPKGTGLKKSKRLLLESLMRRRIAHLKWGLPRRILESYFLFNFLGSCSLTLAGARLSGLNTGQELQAQQERYCEAQGSPPGLKSPERFQRVQRPDRKSSKLPIQARALERNRPHMSEPIKHFHPA
notes: also called FLJ23584; hypothetical protein FLJ23584
Take B7: the binding result in assay [7] is “binds”.

B8: crystallin, alpha B (other)
chain: MDIAIHHPWIRRPFFPFHSPSRLFDQFFGEHLLESDLFPTSTSLSPFYLRPPSFLRAPSWFDTGLSEMRLEKDRFSVNLDVKHFSPEELKVKVLGDVIEVHGKHEERQDEHGFISREFHRKYRIPADVDPLTITSSLSSDGVLTVNGPRKQVSGPERTIPITREEKPAVTAAPKK
notes: also called CRYAB; cbe_4281271
With B8, the binding result in assay [8] is on record as “binds”.

B9: Rab coupling protein (other)
chain: MSLMVSAGRGLGAVWSPTHVQVTVLQARGLRAKGPGGTSDAYAVIQVGKEKYATSVSERSLGAPVWREEATFELPSLLSSGPAAAATLQLTVLHRALLGLDKFLGRAEVDLRDLHRDQGRRKTQWYKLKSKPGKKDKERGEIEVDIQFMRNNMTASMFDLSMKDKSRNPFGKLKDKIKGKNKDSGSDTASAIIPSTTPSVDSDDESVVKDKKKKSKIKTLLSKSNLQKTPLSQSMSVLPTSKPEKVLLRPGDFQSQWDEDDNEDESSSASDVMSHKRTASTDLKQLNQVNFTLPKKEGLSFLGGLRSKNDVLSRSNVCINGNHVYLEQPQPTGEIKDSSPSSSPSPKGFRKKTLFSSTENLAAGSWKEPAEGGGLSTDRDVSESSTKDSLKSMTLPTYRPAPLISGDLREKMAPANSEATKEAKESKKPESRRSSLLSLMTGKKDVAKGSEGENLLTVPGREKEGMLMGVKPGEDASGPAEDLVRRSEKDTAAVVSRQGSSLNLFEDVQITEPEAEPESKSEPRPPISSPRAPQTRAVKPRLHPVKPMNATATKVANCSLGTATIISENLNNEVMMKKYSPSDPAFAYAQLTHDELIQLVLKQKETISKKEFQVRELEDYIDNLLVRVMEETPNILRIPTQVGKKAGKM
notes: also called Hs.30289; RCP
Regarding B9, the binding result in [9] was “binds”.
